The chains are these.
B1: CALM iso3 487-…-501 D488A; D489A; D491A (peptide)
chain: SAALASSLANLVGNL
B2: CALM iso3 487-…-501 D488A; D489A; L490A; D491A; L494A; L497A; L501A (peptide)
chain: SAAAASSAANAVGNA
B3: CALM iso3 487-…-501 L490A; L494A; L497A; L501A (peptide)
chain: SDDADSSAANAVGNA
B4: CALM iso3 490-…-504 L490A; D491A; L494A; L497A; L501A; I503A (peptide)
chain: AASSAANAVGNAGAG
B5: CALM iso3 490-…-504 D491A (peptide)
chain: LASSLANLVGNLGIG
B6: AP180 Site 2 peptide 882-…-896 D885A; D889A; D894A (peptide)
chain: PAKAPLAALNIKAFL
B7: AP180 Site 2 peptide 882-…-896 D885A; L887A; D889A; L890A; I892A; D894A; F895A; L896A (peptide)
chain: PAKAPAAAANAKAAA
B8: AP180 Site 2 peptide 882-…-896 L887A; L890A; I892A; F895A; L896A (peptide)
chain: PAKDPAADANAKDAA
B9: CALM iso3 490-…-504 L490A; L494A; L497A; L501A; I503A (peptide)
chain: ADSSAANAVGNAGAG
B10: CALM iso3 C-terminus peptide 596-…-610 I607A; F609A; M610A (peptide)
chain: PNPFGPVSGAQAQAA

Chain of clathrin purified from bovine brain, P49951 (P49951 2-1675, chain 1 of 3): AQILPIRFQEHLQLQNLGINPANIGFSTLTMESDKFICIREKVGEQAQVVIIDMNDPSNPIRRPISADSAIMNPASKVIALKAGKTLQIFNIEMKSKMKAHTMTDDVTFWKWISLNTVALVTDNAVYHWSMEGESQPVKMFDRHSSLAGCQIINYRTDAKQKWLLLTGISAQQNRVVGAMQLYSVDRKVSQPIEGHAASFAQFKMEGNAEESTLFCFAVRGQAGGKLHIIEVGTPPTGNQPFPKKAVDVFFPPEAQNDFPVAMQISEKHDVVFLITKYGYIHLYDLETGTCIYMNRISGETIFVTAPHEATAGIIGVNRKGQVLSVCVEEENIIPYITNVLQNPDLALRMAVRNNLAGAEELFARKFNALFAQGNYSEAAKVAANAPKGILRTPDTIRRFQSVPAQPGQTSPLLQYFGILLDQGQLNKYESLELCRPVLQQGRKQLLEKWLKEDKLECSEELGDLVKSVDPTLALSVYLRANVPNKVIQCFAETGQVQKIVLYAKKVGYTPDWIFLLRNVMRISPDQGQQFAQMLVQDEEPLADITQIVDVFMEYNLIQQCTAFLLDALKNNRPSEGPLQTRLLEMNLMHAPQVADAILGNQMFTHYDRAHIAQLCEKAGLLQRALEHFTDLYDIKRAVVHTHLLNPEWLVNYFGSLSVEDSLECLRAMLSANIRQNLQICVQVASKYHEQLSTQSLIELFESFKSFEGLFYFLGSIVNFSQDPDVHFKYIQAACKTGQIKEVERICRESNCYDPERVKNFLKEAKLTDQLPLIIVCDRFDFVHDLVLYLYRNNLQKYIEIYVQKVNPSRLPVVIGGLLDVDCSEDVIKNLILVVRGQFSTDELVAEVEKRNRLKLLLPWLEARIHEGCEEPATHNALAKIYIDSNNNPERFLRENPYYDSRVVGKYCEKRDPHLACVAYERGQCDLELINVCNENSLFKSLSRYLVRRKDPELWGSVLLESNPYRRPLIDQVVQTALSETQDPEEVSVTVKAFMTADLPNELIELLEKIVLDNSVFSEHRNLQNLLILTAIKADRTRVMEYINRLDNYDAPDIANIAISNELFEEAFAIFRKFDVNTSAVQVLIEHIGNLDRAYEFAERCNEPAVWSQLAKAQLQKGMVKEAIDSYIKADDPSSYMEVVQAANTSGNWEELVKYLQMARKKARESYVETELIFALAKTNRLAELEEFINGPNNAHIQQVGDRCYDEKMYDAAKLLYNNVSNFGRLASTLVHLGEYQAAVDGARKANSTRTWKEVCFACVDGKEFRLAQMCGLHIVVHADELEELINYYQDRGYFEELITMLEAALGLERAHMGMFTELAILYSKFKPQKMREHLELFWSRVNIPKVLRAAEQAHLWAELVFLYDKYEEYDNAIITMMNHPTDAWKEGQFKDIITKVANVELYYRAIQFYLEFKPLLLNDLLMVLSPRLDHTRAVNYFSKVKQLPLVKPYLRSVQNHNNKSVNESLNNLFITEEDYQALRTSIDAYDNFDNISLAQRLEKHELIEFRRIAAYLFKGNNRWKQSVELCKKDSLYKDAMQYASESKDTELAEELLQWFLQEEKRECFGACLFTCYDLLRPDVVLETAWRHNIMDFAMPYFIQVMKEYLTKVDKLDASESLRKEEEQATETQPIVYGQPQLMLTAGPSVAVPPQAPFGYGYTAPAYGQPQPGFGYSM
Chain of clathrin purified from bovine brain, P49951 (chain, as listed by the source, chain 2 of 3): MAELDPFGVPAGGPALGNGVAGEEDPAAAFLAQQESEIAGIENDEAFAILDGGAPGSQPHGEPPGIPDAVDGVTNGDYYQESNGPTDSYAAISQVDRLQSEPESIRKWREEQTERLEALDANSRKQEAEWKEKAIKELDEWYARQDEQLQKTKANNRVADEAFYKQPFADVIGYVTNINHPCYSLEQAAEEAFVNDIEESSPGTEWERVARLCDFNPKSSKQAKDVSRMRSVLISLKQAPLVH
Chain of clathrin purified from bovine brain, P49951 (chain, as listed by the source, chain 3 of 3): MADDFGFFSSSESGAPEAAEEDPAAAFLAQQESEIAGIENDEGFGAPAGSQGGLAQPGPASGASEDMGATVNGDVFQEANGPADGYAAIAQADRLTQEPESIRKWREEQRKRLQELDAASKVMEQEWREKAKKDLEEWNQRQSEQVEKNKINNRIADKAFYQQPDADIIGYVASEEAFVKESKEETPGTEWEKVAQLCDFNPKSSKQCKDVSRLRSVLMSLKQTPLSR

The first assay has as its target clathrin purified from bovine brain, P49951. Briefly: peptide array overlay assay. To be noted: chain shown with the change, n = 1, parent: est. 0.15, read off a plot.
As to B1, the other: relative clathrin binding (intensity divided by that of 15mer E) came out at 0.35.
For the molecule B2, the other: relative clathrin binding (intensity divided by that of 15mer E) came to 0.
Consider B3, for which the other: relative clathrin binding (intensity divided by that of 15mer E) was determined as 0.

Staying with this assay, now noted: chain shown with the change, n = 1, parent: est. 1.0, read off a plot.
In the case of B4, the ratio to parent stood at 0.
As for B5, the ratio to parent worked out at 1.
B6: the ratio to parent amounted to 0.12.
On to B7, for which the ratio to parent stood at 0.
For B8, the ratio to parent was 0.
Same read-out and setting: the figure for B9 is 0; for B10 it is 0.
